Results on one molecule are retold here after patent US11643670B2, “Methods of enhancing chromosomal homologous recombination” (Massachusetts Institute of Technology, priority 2018, dated 2023).

This test has as its system maternal Chd2 locus. The test is described as follows: Donor-free interchromosomal homologous recombination (ICHR) in IVF-derived Chd2^R1684H/+ embryos. It is filed as cell-based, mouse. The procedure: tracrRNA, crRNAs, and ssODNs were synthesized by Integrated DNA Technologies (TABLE 1). All injection mixtures were prepared in a final volume of 50 μL according to the following methodology: Using RNase-free water, reagents, and consumables, crRNA (final concentration 0.61 μM), tracrRNA (final concentration 0.61 μM), and ultrapure Tris-HCl, pH 7.39 (final concentration 10 mM, ThermoFisher) were mixed and incubated at 95° C. for 5 minutes. The mixtures were cooled to room temperature for 10 minutes on the benchtop, and then, EnGen Cas9-NLS S. pyogenes (New England Biolabs) was added to a final concentration of 30 ng/μL. The mixtures were incubated at 37° C. for 15 minutes before adding any remaining components: ssODN (final concentration 3 ng/μL or 30 ng/μL), RAD51 (Creative Biomart, final concentration 10 ng/μL). Injection mixtures were stored on ice and briefly heated to 37° C. prior to injection. For experiments utilizing RS-1, embryos were cultured in KSOM-AA (EMD Millipore MR-121-D) with […] RS-1 (Sigma) dissolved in DMSO or DMSO (Sigma, 1:1000) for 24 hours, washed, and cultured in EmbryoMax FHM HEPES Buffered Medium (Sigma) until collection for genotyping.
For experiments using wildtype recombinant proteins, the following proteins were used: RAD51 (Creative Biomart RAD51-134H), USP1/WDR48 (Creative Biomart USP1&WDR48-1067H), BCCIP (Origene TP303061), XRCC1 (TP304952), XRCC4 (Origene TP312684), DMC1 (Origene TP318311). For experiments using mutant RAD51, custom RAD51 preparations were produced by Creative Biomart according to their standard protocol for producing the wildtype RAD51 used in all other experiments. Mutant DNA sequences used for cloning are described in TABLE 2. All RAD51 mutants were modeled in human RAD51 transcript variant 4 (NCBI accession NM_001164269), as this is the transcript variant of the wildtype RAD51-134H protein used in all other experiments.
In vitro fertilization was performed using FERTIUP® Mouse Preincubation Medium and CARD MEDIA (Kyudo Company) according to the manufacturer's protocol. Non-virgin Chd2^R1684H/R1684H males that were >8 weeks old were used as sperm donors. Following IVF, embryos were cultured for 8 hours and then injected using the PNI protocol described below.
For all experiments except those described in FIG. 6, the male pronucleus was injected. Injections performed for the CPI portion of FIG. 6 were targeted to the cytoplasm. All microinjections were performed using a Narishige Micromanipulator, Nikon Eclipse TE2000-S microscope, and Eppendorf 5242 microinjector. Individual zygotes were injected with 1-2 pL of injection mixture using an “automatic” injection mode set according to needle size and adjusted for clear increase in pronuclear volume. Following injections, cells were cultured in KSOM-AA until collection for genotyping. For experiments giving rise to F0 animals, embryos were surgically implanted into pseudopregnant CD-1 females (Charles River Laboratories, Strain Code 022) 24-hours post-injection and allowed to develop normally until natural birth.
Embryos were collected at morula-to-blastocyst stage in 4 μL nuclease-free water. After collection, 4 μL of 2× embryo digestion buffer was added to each sample (final concentrations: 125 μg/mL proteinase K, 100 mM Tris-HCl pH 8.0, 100 mM KCl, 0.02% gelatin, 0.45% Tween-20, 60 μg/mL yeast tRNA) and embryos were lysed for 1 hour at 56° C. Proteinase K was inactivated via incubation at 95° C. for 10 minutes and DNA was stored at −20° C. until use.
Chd2^R1684H genotyping was performed via a two-step, nested approach. Except for experiments described in FIGS. 3A-3G, all 8 μL of embryo DNA were used as input for the initial, long round of PCR. Genotyping of mouse pups and adult animals was performed using 2 μL of purified tail DNA. For all embryo genotyping, reactions mixtures were set up in a UV-sterilized laminar flow hood using sterile reagents and filter tips to avoid contamination. […]

Setting [1] is: compared to embryos injected with wildtype RAD51.

B1: G151D: recombinant RAD51 gain-of-function mutant with increased strand exchange activity, SEQ ID NO: 8 (protein)
chain: MAMQMQLEANADTSVEEESFGPQPISRLEQCGINANDVKKLEEAGFHTVEAVAYAPKKELINIKGISEAKADKILTESRSVARLECNSVILVYCTLRLSGSSDSPASASRVVGTTGGIETGSITEMFGEFRTGKTQICHTLAVTCQLPIDRDGGEGKAMYIDTEGTFRPERLLAVAERYGLSGSDVLDNVAYARAFNTDHQTQLLYQASAMMVESRYALLIVDSATALYRTDYSGRGELSARQMHLARFLRMLLRLADEFGVAVVITNQVVAQVDGAAMFAADPKKPIGGNIIAHASTTRLYLRKGRGETRICKIYDSPCLPEAEAMFAINADGVGDAKD
As to B1, the “efficiency of ICHR stimulation” value is given as about 100% and the “indel-to-ICHR ratio (level)” value is reported as “near zero”. Moreover, the indel events entry (27 injected zygotes) is listed as “not a single indel event was identified”. Also, where the note is “blastocysts from Cas9/crRNA/tracrRNA-injected embryos”, the apparent editing efficiency amounted to 22%. The “ICHR rate compared with baseline (Cas9-only embryos)” value (co-injected with Cas9/crRNA/tracrRNA, no donor) is recorded as “ICHR was observed in all edited cells”. Further, for the setting “compared to control embryos”, the indel-to-ICHR ratio entry is listed as “drastic decrease” and the overall indel rate entry was “drastic decrease”. Under setting [1], the indel-to-ICHR ratio result was “significant decreases” and the overall indel rate entry was “significant decreases”.
